Measured values reported in patent US20240124560A1.

Legend:
Assay in all cases: cell-based or functional assay
[1] = molecular target: HIV-1 Env of pseudovirus NIH-098_89.F1 2 25 (clade CD) (HIV-1)
[2] = molecular target: HIV-1 Env of NAC_SS1196.1 (HIV-1)
[3] = molecular target: HIV-1 Env of NIH-019_Du422.1 (HIV-1)
[4] = molecular target: HIV-1 Env of pseudovirus NAC_93IN905 (HIV-1)
[5] = molecular target: HIV-1 Env of pseudovirus NIH-014_6244.13.B5.4567 (HIV-1)
[6] = molecular target: HIV-1 Env of NIH-007_CAAN5342.A2 (HIV-1)
[7] = molecular target: HIV-1 Env of NAC_JRFL (HIV-1)
[8] = molecular target: HIV-1 Env of pseudovirus NHI-028_CAP210.E8 (HIV-1)
[9] = molecular target: HIV-1 Env of NIH-049_CNE20 (HIV-1)
[10] = molecular target: HIV-1 Env of pseudovirus NIH-051_CNE17 (HIV-1)
[11] = molecular target: HIV-1 Env of NIH-031_HIV-16055.2.3 (HIV-1)
[12] = molecular target: HIV-1 Env of pseudovirus NIH-088_X1632 S2 B10 (clade G) (HIV-1)
[13] = molecular target: HIV-1 Env of NIH-080_BJOX025000.01.1 (HIV-1)
[14] = molecular target: HIV-1 Env of pseudovirus NAC_DH12 (HIV-1)
[15] = molecular target: HIV-1 Env of NIH-075_CNE8 (HIV-1)
[16] = molecular target: HIV-1 Env of pseudovirus NIH-049_CNE20 (HIV-1)
[17] = molecular target: HIV-1 Env of pseudovirus NIH-013_6240.08.TA5.4622 (HIV-1)
[18] = molecular target: HIV-1 Env of pseudovirus NIH-043_ZM249M.B10 (HIV-1)
[19] = molecular target: HIV-1 Env of NAC_RHPA4.7 (HIV-1)
[20] = molecular target: HIV-1 Env of pseudovirus NIH-072_R3265.c06 (HIV-1)
[21] = molecular target: HIV-1 Env of pseudovirus NIH-006_AC10.0.29 (HIV-1)
[22] = molecular target: HIV-1 Env of pseudovirus NIH-025_ZM109F.PB4 (HIV-1)
[23] = molecular target: HIV-1 Env of pseudovirus NIH-052_CNE30 (HIV-1)
[24] = molecular target: HIV-1 Env of pseudovirus NIH-017_Du156.12 (HIV-1)
[25] = molecular target: HIV-1 Env of pseudovirus NIH-087_P1981 C5 3 (clade G) (HIV-1)
[26] = molecular target: HIV-1 Env of pseudovirus NIH-106_T250.4 (HIV-1)
[27] = molecular target: HIV-1 Env of NIH-040_Ce703010054 2A2 (HIV-1)
[28] = molecular target: HIV-1 Env of NAC_SF162 (HIV-1)
[29] = molecular target: HIV-1 Env of pseudovirus NIH-108_T235.47 (HIV-1)
[30] = molecular target: HIV-1 Env of pseudovirus NAC_SS1196.1 (HIV-1)
[31] = molecular target: HIV-1 Env of NIH-030_HIV-0013095.2.11 (HIV-1)
[32] = molecular target: HIV-1 Env of NAC_94UG103 (HIV-1)
[33] = molecular target: HIV-1 Env of pseudovirus NIH-078_BJOX015000.11.5 (HIV-1)
[34] = molecular target: HIV-1 Env of pseudovirus NIH-103_0815.v3.c3 (HIV-1)
[35] = molecular target: HIV-1 Env of NAC_92TH021 (HIV-1)
[36] = molecular target: HIV-1 Env of NIH-006_AC10.0.29 (HIV-1)
[37] = molecular target: HIV-1 Env of pseudovirus NIH-038_Ce1172 H1 (HIV-1)
[38] = molecular target: HIV-1 Env of NIH-119_T211.9 (HIV-1)
[39] = molecular target: HIV-1 Env of NIH-003_SC422661.8 (HIV-1)
[40] = molecular target: HIV-1 Env of pseudovirus NIH-005_TRO.11 (HIV-1)
[41] = molecular target: HIV-1 Env of NIH-059_Q461ENVe2 (HIV-1)
[42] = molecular target: HIV-1 Env of pseudovirus NIH-094_3817.v2.c59 (HIV-1)
[43] = molecular target: HIV-1 Env of isolate NIH-082_X1193 c1 (HIV-1)
[44] = molecular target: HIV-1 Env of NIH-041_BF1266.431a (HIV-1)
[45] = molecular target: HIV-1 Env of pseudovirus NIH-008_WEAU.d15.410.787 (HIV-1)
[46] = molecular target: HIV-1 Env of NIH-069_C1080.c03 (HIV-1)

## 4E10 (antibody)
[1]
  IC50 (µg/ml), TZM-bl cell neutralization assay, pseudovirus: 5.11 µg/mL
[2]
  IC80 neutralization: 3.96 µg/mL
[3]
  IC80 neutralization: 5.66 µg/mL
[4]
  neutralization IC50: 0.11 µg/mL
[5]
  neutralization IC50: 0.077 µg/mL
[6]
  IC80 neutralization: 12.1 µg/mL
[7]
  IC80 neutralization: > 50 µg/mL
[8]
  neutralization IC50: 0.847 µg/mL
[9]
  IC80 neutralization: 1.58 µg/mL
[10]
  neutralization IC50: 0.526 µg/mL
[11]
  IC80 neutralization: 6.57 µg/mL
[12]
  IC50 (µg/ml), TZM-bl cell neutralization assay, pseudovirus: 2.57 µg/mL
[13]
  IC80 neutralization: 1.59 µg/mL
[14]
  neutralization IC50: 1.17 µg/mL
[15]
  IC80 neutralization: 0.27 µg/mL
[16]
  neutralization IC50: 0.383 µg/mL
[17]
  neutralization IC50: 9.78 µg/mL
[18]
  neutralization IC50: 1.11 µg/mL
[19]
  IC80 neutralization: 19.3 µg/mL
[20]
  neutralization IC50: 0.491 µg/mL
[21]
  neutralization IC50: 0.666 µg/mL
[22]
  neutralization IC50: 0.703 µg/mL
[23]
  neutralization IC50: 4.17 µg/mL
[24]
  neutralization IC50: 0.101 µg/mL
[25]
  IC50 (µg/ml), TZM-bl cell neutralization assay, pseudovirus: 0.099 µg/mL
[26]
  neutralization IC50: 0.756 µg/mL
[27]
  IC80 neutralization: 12.5 µg/mL
[28]
  IC80 neutralization: 8.26 µg/mL
[29]
  neutralization IC50: 0.248 µg/mL
[30]
  neutralization IC50: 0.99 µg/mL
[31]
  IC80 neutralization: 0.258 µg/mL
[32]
  IC80 neutralization: 7.48 µg/mL
[33]
  neutralization IC50: 0.165 µg/mL
[34]
  neutralization IC50: 1.2 µg/mL
[35]
  IC80 neutralization: 1.38 µg/mL
[36]
  IC80 neutralization: 2.73 µg/mL
[37]
  neutralization IC50: 8.81 µg/mL
[38]
  IC80 neutralization: 5.08 µg/mL
[39]
  IC80 neutralization: 11.1 µg/mL
[40]
  neutralization IC50: 0.769 µg/mL
[41]
  IC80 neutralization: 9.31 µg/mL
[42]
  neutralization IC50: 0.417 µg/mL
[43]
  IC80 (µg/ml), TZM-bl pseudovirus neutralization: 1.43 µg/mL
[44]
  IC80 neutralization: 10 µg/mL
[45]
  neutralization IC50: 0.621 µg/mL
[46]
  IC80 neutralization: 1.36 µg/mL

## PGZL1 (antibody)
[1]
  IC50 (µg/ml), TZM-bl cell neutralization assay, pseudovirus: > 50 µg/mL
[2]
  IC80 neutralization: 22.2 µg/mL
[3]
  IC80 neutralization: 30.5 µg/mL
[4]
  neutralization IC50: 0.404 µg/mL
[5]
  neutralization IC50: 1.31 µg/mL
[6]
  IC80 neutralization: > 50 µg/mL
[7]
  IC80 neutralization: > 50 µg/mL
[8]
  neutralization IC50: 16.7 µg/mL
[9]
  IC80 neutralization: 9.5 µg/mL
[10]
  neutralization IC50: 12.4 µg/mL
[11]
  IC80 neutralization: 42.6 µg/mL
[12]
  IC50 (µg/ml), TZM-bl cell neutralization assay, pseudovirus: 15.5 µg/mL
[13]
  IC80 neutralization: 29.3 µg/mL
[14]
  neutralization IC50: 4.71 µg/mL
[15]
  IC80 neutralization: 0.945 µg/mL
[16]
  neutralization IC50: 2.42 µg/mL
[17]
  neutralization IC50: 35.8 µg/mL
[18]
  neutralization IC50: 6.26 µg/mL
[19]
  IC80 neutralization: > 50 µg/mL
[20]
  neutralization IC50: 28 µg/mL
[21]
  neutralization IC50: 4.64 µg/mL
[22]
  neutralization IC50: 7.36 µg/mL
[23]
  neutralization IC50: 40.5 µg/mL
[24]
  neutralization IC50: 0.623 µg/mL
[25]
  IC50 (µg/ml), TZM-bl cell neutralization assay, pseudovirus: 1.39 µg/mL
[26]
  neutralization IC50: 13.9 µg/mL
[27]
  IC80 neutralization: > 50 µg/mL
[28]
  IC80 neutralization: 48.6 µg/mL
[29]
  neutralization IC50: 1.54 µg/mL
[30]
  neutralization IC50: 5.4 µg/mL
[31]
  IC80 neutralization: 0.113 µg/mL
[32]
  IC80 neutralization: > 50 µg/mL
[33]
  neutralization IC50: 2.59 µg/mL
[34]
  neutralization IC50: 18.7 µg/mL
[35]
  IC80 neutralization: 8.27 µg/mL
[36]
  IC80 neutralization: 18.8 µg/mL
[37]
  neutralization IC50: 0.948 µg/mL
[38]
  IC80 neutralization: > 50 µg/mL
[39]
  IC80 neutralization: > 50 µg/mL
[40]
  neutralization IC50: 2.88 µg/mL
[41]
  IC80 neutralization: > 50 µg/mL
[42]
  neutralization IC50: 20.1 µg/mL
[43]
  IC80 (µg/ml), TZM-bl pseudovirus neutralization: 21.3 µg/mL
[44]
  IC80 neutralization: > 50 µg/mL
[45]
  neutralization IC50: 10 µg/mL
[46]
  IC80 neutralization: 6.93 µg/mL

## VRC01 (antibody)
[1]
  IC50 (µg/ml), TZM-bl cell neutralization assay, pseudovirus: > 50 µg/mL
[2]
  IC80 neutralization: 0.659 µg/mL
[3]
  IC80 neutralization: > 50 µg/mL
[4]
  neutralization IC50: 0.07 µg/mL
[5]
  neutralization IC50: 0.045 µg/mL
[6]
  IC80 neutralization: 2.79 µg/mL
[7]
  IC80 neutralization: 0.741 µg/mL
[8]
  neutralization IC50: > 50 µg/mL
[9]
  IC80 neutralization: 20.2 µg/mL
[10]
  neutralization IC50: 0.219 µg/mL
[11]
  IC80 neutralization: 0.206 µg/mL
[12]
  IC50 (µg/ml), TZM-bl cell neutralization assay, pseudovirus: 0.338 µg/mL
[13]
  IC80 neutralization: 24.8 µg/mL
[14]
  neutralization IC50: 0.227 µg/mL
[15]
  IC80 neutralization: 0.514 µg/mL
[16]
  neutralization IC50: 4.85 µg/mL
[17]
  neutralization IC50: 0.604 µg/mL
[18]
  neutralization IC50: 0.071 µg/mL
[19]
  IC80 neutralization: 0.137 µg/mL
[20]
  neutralization IC50: 0.126 µg/mL
[21]
  neutralization IC50: 0.867 µg/mL
[22]
  neutralization IC50: 0.074 µg/mL
[23]
  neutralization IC50: 0.593 µg/mL
[24]
  neutralization IC50: 0.059 µg/mL
[25]
  IC50 (µg/ml), TZM-bl cell neutralization assay, pseudovirus: 0.203 µg/mL
[26]
  neutralization IC50: > 50 µg/mL
[27]
  IC80 neutralization: 0.595 µg/mL
[28]
  IC80 neutralization: 1.03 µg/mL
[29]
  neutralization IC50: 0.021 µg/mL
[30]
  neutralization IC50: 0.166 µg/mL
[31]
  IC80 neutralization: 0.058 µg/mL
[32]
  IC80 neutralization: 0.752 µg/mL
[33]
  neutralization IC50: 0.06 µg/mL
[34]
  neutralization IC50: 0.019 µg/mL
[35]
  IC80 neutralization: 1.31 µg/mL
[36]
  IC80 neutralization: 3.52 µg/mL
[37]
  neutralization IC50: > 50 µg/mL
[38]
  IC80 neutralization: > 50 µg/mL
[39]
  IC80 neutralization: 0.481 µg/mL
[40]
  neutralization IC50: 0.231 µg/mL
[41]
  IC80 neutralization: 0.776 µg/mL
[42]
  neutralization IC50: > 50 µg/mL
[43]
  IC80 (µg/ml), TZM-bl pseudovirus neutralization: 0.408 µg/mL
[44]
  IC80 neutralization: 0.11 µg/mL
[45]
  neutralization IC50: 0.076 µg/mL
[46]
  IC80 neutralization: 5.7 µg/mL
